Substitutions are numbered along the chain they refer to. In names and notes the source's numbering stands. Blank lines part the entries; values can stand above or below the binder they belong to.
Assays:
[1] = target: T1, human CLDN1 (human, UniProt O95832 1-211); assay: FACS on HEK293 cells transiently expressing human CLDN1
T1 construct: whole, on cells; also called hCLDN1
T1 sequence (looked up): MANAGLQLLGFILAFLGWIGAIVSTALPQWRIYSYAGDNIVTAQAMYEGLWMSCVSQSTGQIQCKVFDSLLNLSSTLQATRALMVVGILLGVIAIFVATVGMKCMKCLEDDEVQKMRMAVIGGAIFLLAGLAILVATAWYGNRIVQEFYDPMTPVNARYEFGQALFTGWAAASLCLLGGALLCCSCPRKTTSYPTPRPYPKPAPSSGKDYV
Procedure: (§1) Antibodies were assayed for binding affinity to human CLDN18.2 paralogous proteins by FACS (ACEA NovoCyte). CLDN1, CLDN2, CLDN3, CLDN4, CLDN6 and CLDN9 genes of the human CLDN18.2 paralogous family were transiently transfected into HEK293 cells. […] The cell density was adjusted to 10⁶ cells/mL, and 50 μL of the cell suspension was added to each well of a 96-well plate. An antibody was diluted to 60 nM with FACS buffer, and 50 μL of the antibody dilution was added to each well of the 96-well plate. After 2 h of incubation at 4° C., the plate was washed twice with FACS buffer. Then, an FACS buffer containing a secondary antibody was added. After 1 h of incubation at 4° C., the plate was washed twice with FACS buffer. The cells were resuspended in fixative solution, and run FACS.

[2] = target: human CLDN18.2 (human); assay: cell-based or functional assay
[3] = target: T2, human CLDN2 (human, UniProt P57739 1-230); assay: FACS on HEK293 cells transiently expressing human CLDN2
T2 construct: whole, on cells; also called hCLDN2
T2 sequence (looked up): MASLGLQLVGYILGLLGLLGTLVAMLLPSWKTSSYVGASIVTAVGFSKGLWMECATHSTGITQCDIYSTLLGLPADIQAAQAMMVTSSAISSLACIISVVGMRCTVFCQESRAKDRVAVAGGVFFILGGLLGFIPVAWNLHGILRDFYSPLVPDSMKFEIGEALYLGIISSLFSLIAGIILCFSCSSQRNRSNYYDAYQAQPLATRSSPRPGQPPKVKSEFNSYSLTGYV
Procedure: as §1

[4] = target: T3, human CLDN9 (human, UniProt O95484 1-217); assay: FACS on HEK293 cells transiently expressing human CLDN9
T3 construct: whole, on cells; also called hCLDN9
T3 sequence (looked up): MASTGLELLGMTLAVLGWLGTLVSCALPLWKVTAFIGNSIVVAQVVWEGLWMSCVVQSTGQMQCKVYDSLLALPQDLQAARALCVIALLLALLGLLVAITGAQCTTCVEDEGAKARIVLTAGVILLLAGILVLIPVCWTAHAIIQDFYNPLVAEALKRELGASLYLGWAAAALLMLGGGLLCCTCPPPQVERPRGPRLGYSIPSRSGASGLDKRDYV
Procedure: as §1

[5] = target: T4, Biotinylated murine CD3E&D (murine, UniProt P22646 22-108; P04235 22-105, biotin label); assay: BLI (Octet), biotinylated CD3 on SA sensor
T4 construct: also called CDD-M82W5
Procedure: The binding kinetics between proteins and antibodies was analyzed by the Biolayer Interferometry (BLI) technique using an Octet Red 96e (Fortebio) system. Human CD3E (Acro, CDE-H5223), cynomolgus CD3E (Acro, CDE-C5226) and murine CD3E (Acro, CDE-M5256) were mixed with biotin (Thermo Scientific, A39257) in a molar ratio of 1:3. The mixture was incubated at 4° C. overnight, and then excess biotin was removed to obtain biotinylated CD3E. The rotation speed was set at 1000 rpm for the system. […] After being equilibrated in the buffer for 120 s, the SA sensor with captured CD3 was allowed to bind to 2-fold serially diluted antibodies. […] Finally, the SA sensor was immersed in a 10 mM glycine-hydrochloric acid solution at pH 1.5 for regeneration to elute the antibodies bound to the sensor. […] For the interactions of fast binding and fast dissociation, the “steady state” method was selected to fit the data to obtain KD(M) values.

[6] = target: T5, human CLDN3 (human, UniProt O15551 1-220); assay: FACS on HEK293 cells transiently expressing human CLDN3
T5 construct: whole, on cells; also called hCLDN3
T5 sequence (looked up): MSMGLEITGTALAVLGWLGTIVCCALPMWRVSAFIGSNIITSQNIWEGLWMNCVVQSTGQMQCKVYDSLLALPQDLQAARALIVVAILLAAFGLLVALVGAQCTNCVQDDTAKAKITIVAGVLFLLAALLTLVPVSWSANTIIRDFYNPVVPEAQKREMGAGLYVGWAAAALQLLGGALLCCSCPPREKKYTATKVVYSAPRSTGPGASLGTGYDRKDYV
Procedure: as §1

T4 sequence (P22646 22-108, chain 1 of 2): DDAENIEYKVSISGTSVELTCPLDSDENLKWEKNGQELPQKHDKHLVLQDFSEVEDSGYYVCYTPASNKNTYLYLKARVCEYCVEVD
T4 sequence (P04235 22-105, chain 2 of 2): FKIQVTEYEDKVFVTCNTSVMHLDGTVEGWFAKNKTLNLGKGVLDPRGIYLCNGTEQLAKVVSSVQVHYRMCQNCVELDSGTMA

- binding result [1]: no binding
- CDC, EC50 (nM), HEK293/hCLDN18.2 [2]: 37.1 nM
- binding result [3]: no binding
- binding result [4]: no binding
- binding result [5]: no binding (tested: 120-7.5 nM)
- binding result [6]: no binding
B1: PR006292 (bispecific antibody, human IgG1, lambda)
chain: EVQLVESGGGLVQPGGSLRLSCAASGFTFSSYWMHWVRQVPGKGLVWVSRISSDASRTIYADSVKGRFTISRDNAKNTLYLQMNSLRAEDTAVYYCARGEDHDILTGYPIRGQGTTVTVSSGGGGSGGGGSGGGGSEVQLVESGGGLVQPGGSLRLSCAASGFTFSSYWMHWVRQVPGKGLVWVSRISSDASRTIYADSVKGRFTISRDNAKNTLYLQMNSLRAEDTAVYYCARGEDHDILTGYPIRGQGTTVTVSSASEPKSSDKTHTCPPCPAPEAAGAPSVFLFPPKPKDTLMISRTPEVTCVVVDVSHEDPEVKFNWYVDGVEVHNAKTKPREEQYNSTYRVVSVLTVLHQDWLNGKEYKCKVSNKALPAPIEKTISKAKGQPREPQVCTLPPSREEMTKNQVSLSCAVKGFYPSDIAVEWESNGQPENNYKTTPPVLDSDGSFFLVSKLTVDKSRWQQGNVFSCSVMHEALHNHYTQKSLSLSPGK
heavy: EVQLVESGGGLVQPGGSLKLSCAASGFTFSTYAMNWVRQASGKGLEWVGRIRSKYNNYATYYADSVKDRFTISRDDSKNTAYLQMNSLKTEDTAVYYCTRHGNFGNSYVSWFAYWGQGTLVTVSSASTKGPSVFPLAPSSKSTSGGTAALGCLVKDYFPEPVTVSWNSGALTSGVHTFPAVLQSSGLYSLSSVVTVPSSSLGTQTYICNVNHKPSNTKVDKKVEPKSCDKTHTCPPCPAPEAAGAPSVFLFPPKPKDTLMISRTPEVTCVVVDVSHEDPEVKFNWYVDGVEVHNAKTKPREEQYNSTYRVVSVLTVLHQDWLNGKEYKCKVSNKALPAPIEKTISKAKGQPREPQVYTLPPCREEMTKNQVSLWCLVKGFYPSDIAVEWESNGQPENNYKTTPPVLDSDGSFFLYSKLTVDKSRWQQGNVFSCSVMHEALHNHYTQKSLSLSPGK
light: QAVVTQEPSLTVSPGGTVTLTCRSSTGAVTTSNYANWVQQKPGQAPRGLIGGTNKRAPWTPARFSGSLLGDKAALTLLGAQPEDEAEYFCALWYSNLWVFGGGTKLTVLGQPKAAPSVTLFPPSSEELQANKATLVCLISDFYPGAVTVAWKADSSPVKAGVETTTPSKQSNNKYAASSYLSLTPEQWKSHRSYSCQVTHEGSTVEKTVAPTECS
notes: structure 1; CD3 Fab from PR003886, CLDN18.2 VH from PR007245; IgG1 knob/hole, AAA (L234A, L235A, G237A)

- binding result [1]: no binding
- binding result [3]: no binding
- binding result [4]: no binding
- binding result [5]: no binding (tested: 120-7.5 nM)
- binding result [6]: no binding
B2: PR006384 (bispecific antibody, human IgG1, lambda)
chain: B1 chain with D54T, A55G, D190T, A191G
heavy: B1 heavy
light: B1 light
notes: structure 1; CD3 Fab from PR003886, CLDN18.2 VH from PR007246; AAA
